Measured values as given in patent US20090202429A1 (TRUSTEES OF COLUMBIA UNIVERSITY IN THE CITY OF NEW YORK, published 2009).
Where a chain is given by its changes, count along the chain named. Names may count otherwise.

B1: recombinant human VWF-A1 protein with 1309I>V and 1324G>S (ligand)
chain: QEPGGLVVPPTDAPVSPTTLYVEDISEPPLHDFYCSRLLDLVFLLDGSSRLSEAEFEVLKAFVVDMMERLRVSQKWVRVAVVEYHDSSHAYIGLKDRKRPSELRRIASQVKYAGSQVASTSEVLKYTLFQIFSKIDRPEASRIALLLMASQEPQRMSRNFVRYVQGLKKKKVIVIPVGIGPHANLKQIRLIEKQAPENKAFVLSSVDELEQQRDEIVSYLCDLAPEAPPPTLPP
notes: also called doubly mutated protein; not shown: amino-terminal vector-derived tag with 6x histidine
B2: recombinant human VWF-A1 protein with 1309I>V and 1326H>R (ligand)
chain: B1 chain with S87G, H89R
notes: as for B1
B3: recombinant murine VWF-A1 protein, wild type (amino acid residues 1238 to 1471, made in bacteria, His tag) (ligand)
chain: QEPGGLVAPPTDAPVSSTTPYVEDTPEPPLHNFYCSKLLDLVFLLDGSSMLSEAEFEVLKAFVVGMMERLHISQKRIRVAVVEYHDGSRAYLELKARKRPSELRRITSQIKYTGSQVASTSEVLKYTLFQIFGKIDRPEASHITLLLTASQEPPRMARNLVRYVQGLKKKKVIVIPVGIGPHASLKQIRLIEKQAPENKAFLLSGVDELEQRRDEIVSYLCDLAPEAPAPTQPP
modifications: single intra-chain disulfide bond between residues 1272 and 1458
notes: Treated as one molecule; also called M VWF-A1; mouse VWF-A1; not shown: amino-terminal 10 amino acids (including 6x histidine) contributed by the vector pQE9
B4: recombinant murine VWF-A1 protein with the type 2B mutation I1309V (1309I>V) (ligand)
chain: B3 chain with I72V
notes: also called M VWF-A1 protein containing the type 2B mutation I1309V; not shown: amino-terminal vector-derived tag with 6x histidine
B5: recombinant murine VWF-A1 protein with 1326R>H (ligand)
chain: B3 chain with R89H
notes: also called mutated murine protein; not shown: amino-terminal vector-derived tag with 6x histidine
B6: murine platelet glycoprotein Ib alpha (GPIb alpha), on mouse platelets (receptor, UniProt O35930 17-734, looked up)
chain: QHTCSISKVTSLLEVNCENKKLTALPADLPADTGILHLGENQLGTFSTASLVHFTHLTYLYLDRCELTSLQTNGKLIKLENLDLSHNNLKSLPSLGWALPALTTLDVSFNKLGSLSPGVLDGLSQLQELYLQNNDLKSLPPGLLLPTTKLKKLNLANNKLRELPSGLLDGLEDLDTLYLQRNWLRTIPKGFFGTLLLPFVFLHANSWYCDCEILYFRHWLQENANNVYLWKQGVDVKDTTPNVASVRCANLDNAPVYSYPGKGCPTSSGDTDYDDYDDIPDVPATRTEVKFSTNTKVHTTHWSLLAAAPSTSQDSQMISLPPTHKPTKKQSTFIHTQSPGFTTLPETMESNPTFYSLKLNTVLIPSPTTLEPTSTQATPEPNIQPMLTTSTLTTPEHSTTPVPTTTILTTPEHSTIPVPTTAILTTPKPSTIPVPTTATLTTLEPSTTPVPTTATLTTPEPSTTLVPTTATLTTPEHSTTPVPTTATLTTPEHSTTPVPTTATLTTPEPSTTLTNLVSTISPVLTTTLTTPESTPIETILEQFFTTELTLLPTLESTTTIIPEQNSFLNLPEVALVSSDTSESSPFLNSDFCCFLPLGFYVLGLLWLLFASVVLILLLTWTWHVTPHSLDMEQSAALATSTHTTSLEVQRARQVTMPRAWLLFLQGSLPTFRSSLFLWVRPNGRVGPLVAGRRPSALSQGRGQDLLGTVGIRYSGHSL
notes: whole, on cells; also called murine GPIb alpha; murine platelets

Columns and labels:
[1] = target: T1, human platelet glycoprotein Ib alpha (GPIb alpha), on human platelets (human, UniProt P07359 17-652); assay: human platelets attached to coated human VWF-A1 against wall shear rate
T1 construct: whole, on cells; also called GPIbα; human GPIb alpha
T1 sequence (P07359 17-652): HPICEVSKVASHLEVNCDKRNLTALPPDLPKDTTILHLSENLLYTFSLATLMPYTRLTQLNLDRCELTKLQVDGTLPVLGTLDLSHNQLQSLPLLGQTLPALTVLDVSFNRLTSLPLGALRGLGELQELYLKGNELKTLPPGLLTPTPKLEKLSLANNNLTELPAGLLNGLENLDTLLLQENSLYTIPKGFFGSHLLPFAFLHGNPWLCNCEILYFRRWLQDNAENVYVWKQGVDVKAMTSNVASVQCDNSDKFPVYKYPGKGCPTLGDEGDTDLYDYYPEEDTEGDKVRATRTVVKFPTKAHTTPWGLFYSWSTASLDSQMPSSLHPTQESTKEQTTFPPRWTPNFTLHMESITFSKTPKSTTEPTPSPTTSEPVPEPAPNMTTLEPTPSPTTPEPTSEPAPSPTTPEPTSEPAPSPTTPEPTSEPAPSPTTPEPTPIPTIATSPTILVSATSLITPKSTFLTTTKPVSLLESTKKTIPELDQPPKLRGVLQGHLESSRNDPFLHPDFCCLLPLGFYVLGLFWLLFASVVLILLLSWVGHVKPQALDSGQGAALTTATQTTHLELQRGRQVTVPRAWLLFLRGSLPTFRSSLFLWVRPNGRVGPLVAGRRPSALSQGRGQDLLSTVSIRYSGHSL

[2] = target: T1, human platelet glycoprotein Ib alpha …; assay: interaction times of VWF-A1 coated beads on surface-immobilized platelets, wall shear stress 1 dyn cm^-2
Protocol: The duration of these interactions are measured by recording images from a Nikon X60 DIC objective (oil immersion) viewed at a frame rate of 235 fps (Speed Vision Technologies, San Diego, Calif.) and subjected to wall shear stresses (WSS) ranging from 0.5 to 3.0 dyn cm⁻². The cellular off-rates are determined by plotting the natural log of the number of VWF-A1 coated microspheres that interacted as a function of time after the initiation of tethering, the slope of the line=−koff (s⁻¹) which is the inverse of the bond lifetime. The force acting on the tether bond was calculated from force balance equations as stated above and koff plotted as a function of these forces.

[3] = target: B6; assay: panel B: coated beads on surface-immobilized murine platelets in flow, ln of bead tethering events against time; shear stress 2.0 dyn cm-2; R2 0.95
Protocol: (§1) The cellular off-rates are determined by plotting the natural log of the number of VWF-A1 coated microspheres that interacted as a function of time after the initiation of tethering, the slope of the line=−koff (s⁻¹) which is the inverse of the bond lifetime. The force acting on the tether bond was calculated from force balance equations as stated above and koff plotted as a function of these forces.
(§2) The use of beads with one uniform size and shape permits determination of the relationship between wall shear stress and the force directly acting on the GPIb alpha-VWF-A1 tether bond (Fb), a parameter difficult to estimate for discoid-shaped objects such as platelets. […] This antibody was made by immunizing Fischer 344 rats (3-4 months old) with recombinant WT protein. […] Spleens from animals with the highest antibody titers were harvested and splenocytes fused with Sp2/0 mouse myeloma cells (54).

[4] = target: B6; assay: panel B: coated beads on surface-immobilized murine platelets in flow, ln of bead tethering events against time; shear stress 0.5 dyn cm-2; R2 0.96
Protocol: as §1, §2

[5] = target: B6; assay: panel B: coated beads on surface-immobilized murine platelets in flow, ln of bead tethering events against time; shear stress 3.0 dyn cm-2; R2 0.98
Protocol: as §1, §2

[6] = target: B6; assay: coated beads on surface-immobilized murine platelets in flow, ln of bead tethering events against time; shear stress 1.0 dyn cm-2; R2 0.95
Protocol: as §1, §2

[7] = target: B6; assay: coated beads on surface-immobilized murine platelets in flow, ln of bead tethering events against time; shear stress 0.5 dyn cm-2; R2 0.96
Protocol: as §1, §2

[8] = target: B6; assay: coated beads on surface-immobilized murine platelets in flow, ln of bead tethering events against time; shear stress 2.0 dyn cm-2; R2 0.98
Protocol: as §1, §2

[9] = target: B6; assay: platelet adhesion to coated recombinant VWF-A1, flow chamber, 800 s^-1
[10] = target: T1, human platelet glycoprotein Ib alpha …; assay: human platelets perfused over coated mutant VWF-A1, wall shear rate 800 s-1; the sheet states that R563H corresponds to R1326H
[11] = target: B6; assay: cell-based or functional assay
[12] = target: T2, murine plasma VWF with the 1326R>H mutation (from homozygous VWF 1326R>H knock-in mice) (mouse, UniProt Q8CIZ8 764-2813); assay: not told at this place
T2 construct: Plasma-derived multimeric VWF; also called R1326H mutant mouse VWF; mutant mouse plasma VWF
T2 sequence (Q8CIZ8 other isoform, or with tags, fused parts or gaps limits assumed): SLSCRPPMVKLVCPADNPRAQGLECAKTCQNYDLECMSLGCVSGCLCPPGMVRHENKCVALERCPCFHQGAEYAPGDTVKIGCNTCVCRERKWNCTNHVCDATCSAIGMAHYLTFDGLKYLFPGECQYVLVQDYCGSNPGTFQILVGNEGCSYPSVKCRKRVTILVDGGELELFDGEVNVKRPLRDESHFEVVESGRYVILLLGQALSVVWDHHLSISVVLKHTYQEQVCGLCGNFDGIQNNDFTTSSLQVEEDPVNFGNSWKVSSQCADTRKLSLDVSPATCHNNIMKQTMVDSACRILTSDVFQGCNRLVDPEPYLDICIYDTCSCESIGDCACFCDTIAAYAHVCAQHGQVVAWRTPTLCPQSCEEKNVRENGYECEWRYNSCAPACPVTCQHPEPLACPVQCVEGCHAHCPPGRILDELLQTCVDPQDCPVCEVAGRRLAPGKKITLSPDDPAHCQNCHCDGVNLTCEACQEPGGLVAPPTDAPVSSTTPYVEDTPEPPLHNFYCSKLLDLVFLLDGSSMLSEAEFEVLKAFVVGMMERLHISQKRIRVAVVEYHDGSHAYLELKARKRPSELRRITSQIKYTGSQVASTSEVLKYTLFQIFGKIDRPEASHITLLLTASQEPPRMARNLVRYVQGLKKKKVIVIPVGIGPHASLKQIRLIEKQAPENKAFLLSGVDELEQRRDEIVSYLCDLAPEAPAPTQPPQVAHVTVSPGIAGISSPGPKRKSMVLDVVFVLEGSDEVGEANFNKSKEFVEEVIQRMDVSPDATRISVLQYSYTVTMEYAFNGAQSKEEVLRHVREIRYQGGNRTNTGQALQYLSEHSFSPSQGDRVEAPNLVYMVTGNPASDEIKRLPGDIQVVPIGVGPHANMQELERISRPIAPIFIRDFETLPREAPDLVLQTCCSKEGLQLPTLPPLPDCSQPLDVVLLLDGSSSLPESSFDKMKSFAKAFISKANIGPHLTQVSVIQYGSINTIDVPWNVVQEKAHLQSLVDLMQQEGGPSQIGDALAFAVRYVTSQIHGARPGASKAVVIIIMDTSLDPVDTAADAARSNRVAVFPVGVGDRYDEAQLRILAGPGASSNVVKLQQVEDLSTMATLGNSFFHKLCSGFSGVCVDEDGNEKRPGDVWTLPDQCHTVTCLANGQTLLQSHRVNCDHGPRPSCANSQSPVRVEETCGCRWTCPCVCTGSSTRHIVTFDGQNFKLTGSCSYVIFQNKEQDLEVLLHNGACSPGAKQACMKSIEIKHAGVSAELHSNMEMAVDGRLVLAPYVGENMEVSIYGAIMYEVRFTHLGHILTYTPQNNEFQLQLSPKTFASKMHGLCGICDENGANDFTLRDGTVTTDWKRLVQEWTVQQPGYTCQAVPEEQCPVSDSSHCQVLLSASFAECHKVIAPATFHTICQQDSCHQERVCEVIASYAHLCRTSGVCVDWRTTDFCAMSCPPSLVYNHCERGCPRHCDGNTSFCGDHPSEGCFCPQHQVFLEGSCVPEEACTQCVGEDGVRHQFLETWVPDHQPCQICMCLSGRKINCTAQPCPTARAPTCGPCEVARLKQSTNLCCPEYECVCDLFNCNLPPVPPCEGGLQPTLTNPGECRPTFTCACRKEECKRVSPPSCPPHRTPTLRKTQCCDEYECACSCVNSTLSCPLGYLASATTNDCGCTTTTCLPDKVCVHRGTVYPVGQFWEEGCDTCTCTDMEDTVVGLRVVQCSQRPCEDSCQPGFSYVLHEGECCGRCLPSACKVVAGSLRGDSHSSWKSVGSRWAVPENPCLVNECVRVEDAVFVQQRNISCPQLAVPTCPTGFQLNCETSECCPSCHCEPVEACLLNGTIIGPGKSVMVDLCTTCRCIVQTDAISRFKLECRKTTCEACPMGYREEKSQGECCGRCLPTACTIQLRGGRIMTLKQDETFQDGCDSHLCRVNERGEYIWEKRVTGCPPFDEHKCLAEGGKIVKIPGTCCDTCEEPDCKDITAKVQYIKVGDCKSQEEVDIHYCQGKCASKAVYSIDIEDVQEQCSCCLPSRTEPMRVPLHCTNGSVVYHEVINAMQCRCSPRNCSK

Binder: B1
- binding result [1]: no binding

Binder: B2
- fold reduction in koff against the single mutant 1326H>R [2]: 2 fold
- koff [2]: 8.5 s⁻¹

Binder: B3
- koff [3]: 8.4 s⁻¹
- koff [4]: 5.1 s⁻¹
- koff [5]: 9.9 s⁻¹

Binder: B4
- koff [6]: 0.9 s⁻¹
- koff [7]: 0.7 s⁻¹
- koff [8]: 1.6 s⁻¹

Binder: B5
- fold reduction of platelet adhesion against the WT mouse protein [9]: ~5 fold
- binding result [10]: binds
- translocation velocities of murine platelets, fold increase against the WT mouse protein, 800 s^-1 [11]: ~7 fold

Binder: B6
- binding result [12]: binds
